Data as given in PMC2953525, “Subtle Alterations in PCNA-Partner Interactions Severely Impair DNA Replication and Repair” (PLoS Biology, 2010).
Numbering of substitutions follows the chain as printed. Values belong to the binder of their own block, whether it stands above or below them. Where no end group is shown, it is not given here.

Columns and labels:
[1] = molecular target: T1, pol30-Rad30E9, 6×Histidine-tagged (yeast, UniProt P15873 1-258, IDCL DIDADFLKIEEL to DNDWDFLKIDEL); experiment: SPR; ProteOn XPR36; WT or mutant PCNA (0.4 to 5.2 fmol) immobilised on a GLM chip by carbodiimide-activated succinimide coupling; PIP peptides 5–5,000 nM at 30 µl/min; peptide buffer 150 mM NaCl, 1 mM EDTA, 0.01% Tween-80, 30 mM Hepes, pH 7.5; conditions: both partners purified
T1 construct: PCNA (POL30), yeast, in pET28; also called Pol30-Rad30E9p; source: E. coli BL21, in cleared crude lysate (ELISA); purified by Ni-NTA (SPR)
T1 sequence: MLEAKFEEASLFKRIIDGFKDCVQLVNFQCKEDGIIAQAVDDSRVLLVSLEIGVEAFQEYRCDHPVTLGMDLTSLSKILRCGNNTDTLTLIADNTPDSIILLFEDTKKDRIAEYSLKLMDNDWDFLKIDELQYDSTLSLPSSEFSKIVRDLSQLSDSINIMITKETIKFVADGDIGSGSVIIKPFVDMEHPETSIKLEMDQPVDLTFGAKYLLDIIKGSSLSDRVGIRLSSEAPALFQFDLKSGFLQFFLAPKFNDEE

[2] = molecular target: T2, pol30-Pol32E9, 6×Histidine-tagged (yeast, UniProt P15873 1-258, IDCL DIDADFLKIEEL to DNDVDSLKIIEL); experiment: as above; conditions: both partners purified
T2 construct: PCNA (POL30), yeast, in pET28; source: E. coli BL21, in cleared crude lysate (ELISA); purified by Ni-NTA (SPR)
T2 sequence: T1 sequence with W123V, F125S, D129I

pol30-Msh6E2 = molecular target: T3, pol30-Msh6E2 (yeast, UniProt P15873 1-258, IDCL DIDADFLKIEEL to DYDRDMLKISEL); experiment: two-hybrid; quantitative Y2H: generation time of the YRG2 strains in liquid SC-Leu-Trp-His, given relative to cells expressing WT PCNA; average of at least 3 experiments; conditions: partners not purified
T3 construct: PCNA (POL30), yeast; source: yeast two-hybrid fusion (pAD-GAL4, strain YRG2)
T3 sequence: T1 sequence with N121Y, W123R, F125M, D129S

pol30-Msh6E6 = molecular target: T4, pol30-Msh6E6 (yeast, UniProt P15873 1-258, IDCL DIDADFLKIEEL to DYDKDLLKIIEL); experiment: as above; conditions: partners not purified
T4 construct: PCNA (POL30), yeast; source: yeast two-hybrid fusion (pAD-GAL4, strain YRG2)
T4 sequence: T1 sequence with N121Y, W123K, F125L, D129I

pol30-79 = molecular target: T5, pol30-79 (yeast, UniProt P15873 1-258, IDCL DIDADFLKIEEL to DIDADFAKAEEL); experiment: as above; conditions: partners not purified
T5 construct: PCNA (POL30), yeast; the changes are then L126A and I128A; also called PCNA79; source: yeast two-hybrid fusion (pAD-GAL4, strain YRG2)
T5 sequence: T1 sequence with N121I, W123A, L126A, I128A, D129E

pol30-Ung1E3 = molecular target: T6, pol30-Ung1E3 (yeast, UniProt P15873 1-258, IDCL DIDADFLKIEEL to DFDYDELKIEEL); experiment: as above; conditions: partners not purified
T6 construct: PCNA (POL30), yeast; source: yeast two-hybrid fusion (pAD-GAL4, strain YRG2)
T6 sequence: T1 sequence with N121F, W123Y, F125E, D129E

pol30-Rad30E2 = molecular target: T7, pol30-Rad30E2 (yeast, UniProt P15873 1-258, IDCL DIDADFLKIEEL to DDDWDFLKILEL); experiment: as above; conditions: partners not purified
T7 construct: PCNA (POL30), yeast; source: yeast two-hybrid fusion (pAD-GAL4, strain YRG2)
T7 sequence: T1 sequence with N121D, D129L

pol30-Pol32E5 = molecular target: T8, pol30-Pol32E5 (yeast, UniProt P15873 1-258, IDCL DIDADFLKIEEL to DADNDFLKISEL); experiment: as above; conditions: partners not purified
T8 construct: PCNA (POL30), yeast; source: yeast two-hybrid fusion (pAD-GAL4, strain YRG2)
T8 sequence: T1 sequence with N121A, W123N, D129S

pol30-Pol32E9 = molecular target: T9, pol30-Pol32E9 (yeast, UniProt P15873 1-258, IDCL DIDADFLKIEEL to DNDVDSLKIIEL); experiment: as above; conditions: partners not purified
T9 construct: PCNA (POL30), yeast; source: yeast two-hybrid fusion (pAD-GAL4, strain YRG2)
T9 sequence: T1 sequence with W123V, F125S, D129I

fold increase in binding affinity relative to WT PCNA (SPR) [1]: 8.5 fold
B1: PIP peptide derived from Rad30 (peptide)
chain: QKKQVTSSKNILSFFTRKK
modifications: also: biotinylated, site not given here

fold increase in binding affinity relative to WT PCNA (SPR) [2]: 2 fold
B2: PIP peptide derived from Pol32 (peptide)
chain: QGTLESFFKRKAK
modifications: also: biotinylated, site not given here

fold change in affinity relative to WT PCNA (Y2H generation time) (pol30-Msh6E2): 1.4 fold
fold change in affinity relative to WT PCNA (Y2H generation time) (pol30-Msh6E6): 1.4 fold
fold change in affinity relative to WT PCNA (Y2H generation time) (pol30-79): 0.4 fold
B3: Msh6 (natural protein, yeast, UniProt Q03834 1-1242, looked up)
chain: MAPATPKTSKTAHFENGSTSSQKKMKQSSLLSFFSKQVPSGTPSKKVQKPTPATLENTATDKITKNPQGGKTGKLFVDVDEDNDLTIAEETVSTVRSDIMHSQEPQSDTMLNSNTTEPKSTTTDEDLSSSQSRRNHKRRVNYAESDDDDSDTTFTAKRKKGKVVDSESDEDEYLPDKNDGDEDDDIADDKEDIKGELAEDSGDDDDLISLAETTSKKKFSYNTSHSSSPFTRNISRDNSKKKSRPNQAPSRSYNPSHSQPSATSKSSKFNKQNEERYQWLVDERDAQRRPKSDPEYDPRTLYIPSSAWNKFTPFEKQYWEIKSKMWDCIVFFKKGKFFELYEKDALLANALFDLKIAGGGRANMQLAGIPEMSFEYWAAQFIQMGYKVAKVDQRESMLAKEMREGSKGIVKRELQCILTSGTLTDGDMLHSDLATFCLAIREEPGNFYNETQLDSSTIVQKLNTKIFGAAFIDTATGELQMLEFEDDSECTKLDTLMSQVRPMEVVMERNNLSTLANKIVKFNSAPNAIFNEVKAGEEFYDCDKTYAEIISSEYFSTEEDWPEVLKSYYDTGKKVGFSAFGGLLYYLKWLKLDKNLISMKNIKEYDFVKSQHSMVLDGITLQNLEIFSNSFDGSDKGTLFKLFNRAITPMGKRMMKKWLMHPLLRKNDIESRLDSVDSLLQDITLREQLEITFSKLPDLERMLARIHSRTIKVKDFEKVITAFETIIELQDSLKNNDLKGDVSKYISSFPEGLVEAVKSWTNAFERQKAINENIIVPQRGFDIEFDKSMDRIQELEDELMEILMTYRKQFKCSNIQYKDSGKEIYTIEIPISATKNVPSNWVQMAANKTYKRYYSDEVRALARSMAEAKEIHKTLEEDLKNRLCQKFDAHYNTIWMPTIQAISNIDCLLAITRTSEYLGAPSCRPTIVDEVDSKTNTQLNGFLKFKSLRHPCFNLGATTAKDFIPNDIELGKEQPRLGLLTGANAAGKSTILRMACIAVIMAQMGCYVPCESAVLTPIDRIMTRLGANDNIMQGKSTFFVELAETKKILDMATNRSLLVVDELGRGGSSSDGFAIAESVLHHVATHIQSLGFFATHYGTLASSFKHHPQVRPLKMSILVDEATRNVTFLYKMLEGQSEGSFGMHVASMCGISKEIIDNAQIAADNLEHTSRLVKERDLAANNLNGEVVSVPGGLQSDFVRIAYGDGLKNTKLGSGEGVLNYDWNIKRNVLKSLFSIIDDLQS
notes: Msh6 (mismatch repair), yeast; also called pBD-Msh6; source: yeast two-hybrid fusion (pBD-GAL4, strain YRG2)

fold change in affinity relative to WT PCNA (Y2H generation time) (pol30-Ung1E3): 1.3 fold
fold change in affinity relative to WT PCNA (Y2H generation time) (pol30-79): 0.3 fold
B4: Ung1 (natural protein, yeast, UniProt P12887 1-359, looked up)
chain: MWCMRRLPTNSVMTVARKRKQTTIEDFFGTKKSTNEAPNKKGKSGATFMTITNGAAIKTETKAVAKEANTDKYPANSNAKDVYSKNLSSNLRTLLSLELETIDDSWFPHLMDEFKKPYFVKLKQFVTKEQADHTVFPPAKDIYSWTRLTPFNKVKVVIIGQDPYHNFNQAHGLAFSVKPPTPAPPSLKNIYKELKQEYPDFVEDNKVGDLTHWASQGVLLLNTSLTVRAHNANSHSKHGWETFTKRVVQLLIQDREADGKSLVFLLWGNNAIKLVESLLGSTSVGSGSKYPNIMVMKSVHPSPLSASRGFFGTNHFKMINDWLYNTRGEKMIDWSVVPGTSLREVQEANARLESESKDP
notes: Ung1 (base excision repair), yeast; also called pBD-Ung1; source: yeast two-hybrid fusion (pBD-GAL4, strain YRG2)

fold change in affinity relative to WT PCNA (Y2H generation time) (pol30-79): 0.3 fold
fold change in affinity relative to WT PCNA (Y2H generation time) (pol30-Rad30E2): 0.4 fold
fold change in affinity relative to WT PCNA (Y2H generation time) (pol30-Pol32E5): 1.5 fold
fold change in affinity relative to WT PCNA (Y2H generation time) (pol30-Pol32E9): 1.3 fold
B5: Pol32 (natural protein, yeast, UniProt P47110 1-350, looked up)
chain: MDQKASYFINEKLFTEVKPVLFTDLIHHLKIGPSMAKKLMFDYYKQTTNAKYNCVVICCYKDQTIKIIHDLSNIPQQDSIIDCFIYAFNPMDSFIPYYDIIDQKDCLTIKNSYELKVSESSKIIERTKTLEEKSKPLVRPTARSKTTPEETTGRKSKSKDMGLRSTALLAKMKKDRDDKETSRQNELRKRKEENLQKINKQNPEREAQMKELNNLFVEDDLDTEEVNGGSKPNSPKETDSNDKDKNNDDLEDLLETTAEDSLMDVPKIQQTKPSETEHSKEPKSEEEPSSFIDEDGYIVTKRPATSTPPRKPSPVVKRALSSSKKQETPSSNKRLKKQGTLESFFKRKAK
notes: Pol32 (DNA polymerase subunit), yeast; also called pBD-Pol32; source: yeast two-hybrid fusion (pBD-GAL4, strain YRG2)
